One protein from article PMC12356840, “Structural basis for substrate recognition mechanism of human SLC26A7” (Nature Communications, 2025) can be followed below.

This data set concerns the molecule itself. Put plainly: cryo-EM structure; purified SLC26A7 in 25 mM Tris pH 8.0, 150 mM NaCl, 0.02% GDN, 5-10 mg/ml; apo sample and sample with 20 mM sodium iodide; dimer model obtained by C2 symmetry.

B1: human SLC26A7 (solute carrier family 26 member 7) (natural protein, UniProt Q8TE54 1-656, looked up)
chain: MTGAKRKKKSMLWSKMHTPQCEDIIQWCRRRLPILDWAPHYNLKENLLPDTVSGIMLAVQQVTQGLAFAVLSSVHPVFGLYGSLFPAIIYAIFGMGHHVATGTFALTSLISANAVERIVPQNMQNLTTQSNTSVLGLSDFEMQRIHVAAAVSFLGGVIQVAMFVLQLGSATFVVTEPVISAMTTGAATHVVTSQVKYLLGMKMPYISGPLGFFYIYAYVFENIKSVRLEALLLSLLSIVVLVLVKELNEQFKRKIKVVLPVDLVLIIAASFACYCTNMENTYGLEVVGHIPQGIPSPRAPPMNILSAVITEAFGVALVGYVASLALAQGSAKKFKYSIDDNQEFLAHGLSNIVSSFFFCIPSAAAMGRTAGLYSTGAKTQVACLISCIFVLIVIYAIGPLLYWLPMCVLASIIVVGLKGMLIQFRDLKKYWNVDKIDWGIWVSTYVFTICFAANVGLLFGVVCTIAIVIGRFPRAMTVSIKNMKEMEFKVKTEMDSETLQQVKIISINNPLVFLNAKKFYTDLMNMIQKENACNQPLDDISKCEQNTLLNSLSNGNCNEEASQSCPNEKCYLILDCSGFTFFDYSGVSMLVEVYMDCKGRSVDVLLAHCTASLIKAMTYYGNLDSEKPIFFESVSAAISHIHSNKNLSKLSDHSEV
notes: full-length wild-type human SLC26A7 (also known as SUT2), UniProt Q8TE54; Homodimer (domain-swapped) in the cryo-EM structures; both were used to capture the protein on the way to the structure; The iodide-loaded sample had 20 mM sodium iodide throughout the purification; also called SUT2; SLC26A7_apo
One may read the stoichiometry N as a count of units in the complex or per binding partner. Turning to B1, the “stoichiometry N” value was determined as 2.
